Source: article doi:10.1101/2025.05.16.654599 (bioRxiv, 2025)
Blank lines part the entries; values can stand above or below the molecule they belong to.

Experiments:
mNeon PPM1H (human) = mNeon PPM1H (human) (UniProt Q9ULR3); assay: MST; unlabeled Rab titrated (16 serial dilutions) against 100 nM fluorescent mNeon PPM1H form; Monolith NT.115; 30 min in the dark in a reaction buffer; 3 independent measurements with different protein preparations
mNeon PPM1H = biological target: T1, mNeon PPM1H (human, UniProt Q9ULR3 1-514); assay: as above; conditions: both partners purified
T1 construct: PPM1H phosphatase, human, full length; mNeon inserted into loop 1 (residues 115-133) at position 125; mNeon is the fluorophore read in MST; not measured here; also called HisSUMO-mNeon PPM1H; His SUMO mNeon PPM1H; not shown: His-SUMO, N-terminal, cleaved; mNeon, internal (in loop 1 at position 125), kept
T1 sequence (looked up): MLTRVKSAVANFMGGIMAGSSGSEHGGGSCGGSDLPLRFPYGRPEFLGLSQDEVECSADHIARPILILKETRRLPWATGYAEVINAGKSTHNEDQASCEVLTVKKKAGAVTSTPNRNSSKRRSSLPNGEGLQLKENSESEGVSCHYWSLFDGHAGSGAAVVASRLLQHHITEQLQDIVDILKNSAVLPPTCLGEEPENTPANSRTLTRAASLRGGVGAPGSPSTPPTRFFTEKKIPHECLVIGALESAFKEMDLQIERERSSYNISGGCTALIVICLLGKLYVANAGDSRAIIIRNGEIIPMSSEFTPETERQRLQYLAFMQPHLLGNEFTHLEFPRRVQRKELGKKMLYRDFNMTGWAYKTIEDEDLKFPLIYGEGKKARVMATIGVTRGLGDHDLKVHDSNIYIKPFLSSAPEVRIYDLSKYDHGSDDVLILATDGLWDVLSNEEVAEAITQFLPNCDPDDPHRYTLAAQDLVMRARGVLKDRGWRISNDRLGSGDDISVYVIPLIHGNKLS

Kd (mNeon PPM1H (human)): 7400 nM
Molecule: Rab12 (Q101L) full length (from UniProt Q6IQ22-2 1-244) (natural protein)

Kd (mNeon PPM1H): 1400 ± 980 nM
B1: His Rab8A (Q67L) full length (natural protein, human, UniProt P61006 1-207, looked up)
chain: MAKTYDYLFKLLLIGDSGVGKTCVLFRFSEDAFNSTFISTIGIDFKIRTIELDGKRIKLQIWDTAGLERFRTITTAYYRGAMGIMLVYDITNEKSFDNIRNWIRNIEEHASADVEKMILGNKCDVNDKRQVSKERGEKLALDYGIKFMETSAKANINVENAFFTLARDIKAKMDKKLEGNSPQGSNQGVKITPDQQKRSSFFRCVLL
notes: Printed both as 'His Rab8A' and 'Rab8A-6XHis'; also called Rab8A-6XHis; non-phosphorylated Rab8A

Kd (mNeon PPM1H): 990 ± 630 nM
B2: thio-phosphorylated Rab8A (natural protein, human, UniProt P61006 1-207, looked up)
chain: B1 chain
modifications: thio-phosphorylated with ATPγS by MST3 kinase (residue not given); fully modified by PhosTag gel
notes: Rab8A GTPase, human, full length, non-prenylated, Q67L, thio-phosphorylated; Removal of His-MST3 before MST is not described for this preparation; also called thio-pRab8A; His pRab8A Q67L; source: E. coli, purified His Rab8A Q67L, then incubated overnight at 4°C with His-MST3 kinase and 2 mM ATPγS

Kd (mNeon PPM1H): 1300 ± 900 nM
B3: Rab10 (Q68L) full length (natural protein, human, UniProt P61026 1-200, looked up)
chain: MAKKTYDLLFKLLLIGDSGVGKTCVLFRFSDDAFNTTFISTIGIDFKIKTVELQGKKIKLQIWDTAGLERFHTITTSYYRGAMGIMLVYDITNGKSFENISKWLRNIDEHANEDVERMLLGNKCDMDDKRVVPKGKGEQIAREHGIRFFETSAKANINIEKAFLTLAEDILRKTPVKEPNSENVDISSGGGVTGWKSKCC
notes: also called His SUMO Rab10 (Q68L); non-phosphorylated Rab10; not shown: His-SUMO, N-terminal, cleaved
